Here are results for 15 molecules from patent US20120149881A1 (Genentech, published 2012).

For orientation: Kd means a measure of binding affinity in units of concentration. Higher therefore signals lower affinity. The term IC50 denotes the concentration that inhibits the measured activity by half. The low end stands for inhibition by little substance, the high end for a need for much substance.

B1: humanized anti-IgE/M1′ antibody 47H4.v1 (antibody, V domains shown)
VH: EVQLVESGGGLVQPGGSLRLSCAASGFTFSDYGMAWVRQAPGKGLEWVAFISDLAYTIYYADTVTGRFTISRDNSKNTLYLQMNSLRAEDTAVYYCARDNWDAMDYWGQGTLVTVSS
VL: DIQMTQSPSSLSASVGDRVTITCRSSQSLVHNNGNTYLHWYQQKPGKAPKLLIYKVSNRFSGVPSRFSGSGSGTDFTLTISSLQPEDFATYYCSQNTLVPWTFGQGTKVEIKR
notes: direct CDR graft, produced as IgG
B2: humanized anti-IgE/M1′ antibody 47H4.v2 (antibody, V domains shown)
VH: B1 VH
VL: B1 VL with G34A
notes: produced as IgG
B3: humanized anti-IgE/M1′ antibody 47H4.v4 (antibody, V domains shown)
VH: B1 VH with M34I, M104L
VL: B1 VL with G34A
notes: produced as IgG
B4: humanized anti-IgE/M1′ antibody 47H4.v3 (antibody, V domains shown)
VH: B1 VH with M34I, M104L
VL: B1 VL
notes: produced as IgG
B5: humanized anti-IgE/M1′ antibody 26A11.v1 (antibody, V domains shown)
VH: EVQLVESGGGLVQPGGSLRLSCAASGYTFTDYYMMWVRQAPGKGLEWVGDINPNNYDTSYNQKFKGRFTISADTSKNTAYLQMNSLRAEDTAVYYCASKAYWGQGTLVTVSS
VL: DIQMTQSPSSLSASVGDRVTITCRSSQDISNSLNWYQQKPGKAPKLLIYSTSRLHSGVPSRFSGSGSGTDFTLTISSLQPEDFATYYCQQGHTLPWTFGQGTKVEIKR
notes: direct CDR graft, produced as IgG in 293 cells
B6: humanized anti-IgE/M1′ antibody 26A11.v3 (antibody, V domains shown)
VH: B5 VH
VL: B5 VL with S32Y
notes: produced as IgG
B7: humanized anti-IgE/M1′ antibody 26A11.v4 (antibody, V domains shown)
VH: B5 VH with M34I
VL: B5 VL
notes: produced as IgG
B8: humanized anti-IgE/M1′ antibody 26A11.v2 (antibody, V domains shown)
VH: B5 VH
VL: B5 VL with S32A
notes: produced as IgG
B9: humanized anti-IgE/M1′ antibody 26A11.v15 (antibody, V domains shown)
VH: B5 VH with M34I
VL: B5 VL with N31S
notes: produced as IgG
B10: humanized anti-IgE/M1′ antibody 26A11.v14 (antibody, V domains shown)
VH: B5 VH
VL: B5 VL with N31Q
notes: produced as IgG
B11: humanized anti-IgE/M1′ antibody 26A11.v16 (antibody, V domains shown)
VH: B5 VH with M34I
VL: B5 VL with N31Q
notes: produced as IgG
B12: humanized anti-IgE/M1′ antibody 26A11.v13 (antibody, V domains shown)
VH: B5 VH
VL: B5 VL with N31S
notes: produced as IgG
B13: humanized anti-IgE/M1′ antibody 26A11.v5 (antibody, V domains shown)
VH: B5 VH with M34I
VL: B5 VL with S32A
notes: produced as IgG
B14: murine anti-IgE/M1′ antibody 1C11 (antibody, V domains shown)
VH: QVQLQQSGAELVRPGASVTLSCKASGYTFTDFEMHWVKQTPVHGLEWIGAIAPETGTSAYNQKFRGKATLTADISSSTAYMDLRSLTSEDSAVYYCTIYYAAPWFAYWGQGTLVTVSS
VL: DIVMSQSPSSLAVSVGEKVTMSCKSSQSLLYSSNQKNYLAWYQQKPGQSPKLLIYWASTRESGVPDRFTGSGSVTDFPLTISSVKAEDLAVYYCQQYYSYPYTFGGGTKVEIKR
notes: murine hybridoma antibody; also called 1C11.10.20
B15: murine anti-IgE/M1′ antibody 45C1 (antibody, V domains shown)
VH: QIQLVQSGPELKKPGETVKISCKASGYTFTNYGMNWVKQAPGKGLKWMGWINTYTGEPTYVDDFKGRFAFSLETSASTAYLQINNLKNEDMATYFCARGIYYDNDDIYWGQGTILTVSS
VL: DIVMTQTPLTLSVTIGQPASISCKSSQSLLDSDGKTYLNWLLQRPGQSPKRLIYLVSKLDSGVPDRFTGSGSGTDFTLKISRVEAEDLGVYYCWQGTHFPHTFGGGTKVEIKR
notes: murine hybridoma antibody; also called 45C1.6.14

Changes are numbered by the printed parent chain.

The target of the first assay is T1, human IgE CH3-CH4-M1′/Fc fusion protein (human).
T1 construct: also called M1′ (immobilized)
T1 sequence (chain, as listed by the source limits assumed): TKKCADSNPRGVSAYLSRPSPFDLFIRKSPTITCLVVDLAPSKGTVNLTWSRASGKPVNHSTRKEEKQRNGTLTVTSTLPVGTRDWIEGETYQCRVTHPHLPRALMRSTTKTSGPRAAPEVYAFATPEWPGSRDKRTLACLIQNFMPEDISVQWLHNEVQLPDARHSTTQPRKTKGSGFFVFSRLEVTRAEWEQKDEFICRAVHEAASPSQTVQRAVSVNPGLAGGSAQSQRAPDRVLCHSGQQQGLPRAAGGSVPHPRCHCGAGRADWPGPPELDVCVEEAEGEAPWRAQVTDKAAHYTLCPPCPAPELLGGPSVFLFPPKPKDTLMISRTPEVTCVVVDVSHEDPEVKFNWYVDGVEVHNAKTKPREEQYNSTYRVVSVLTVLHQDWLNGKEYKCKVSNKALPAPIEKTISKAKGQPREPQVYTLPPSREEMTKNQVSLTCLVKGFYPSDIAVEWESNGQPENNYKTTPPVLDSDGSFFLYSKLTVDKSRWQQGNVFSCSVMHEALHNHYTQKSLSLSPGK
In words: SPR Biacore A100, M1′ immobilized. On the technique in general: SPR reads the build-up and loss of mass on a sensor chip optically.
Take B1: the Kd came out at 7.8 nM.
For B2, the Kd turned out to be 7.4 nM.
On the same count and under the same terms, to B3 belongs 56 nM.
Regarding B4, the Kd was 69 nM.
Molecule B5 had a dissociation constant (Kd) of 0.2 nM.
On the same count and under the same terms, to B6 belongs less than 0.05 nM; to B7, 0.9 nM.
Turning to B8, binding was characterised by a dissociation constant (Kd) of 0.3 nM.

For another assay, the target named is T1, human IgE CH3-CH4-M1′/Fc fusion protein. In words: SPR Biacore 2000, M1′-Fc immobilized.
As to B5, the equilibrium dissociation constant (Kd) amounted to 1.7 nM.
The same measure, in the same setting: for B6 the value was 2.8 nM.
The same measure, in the same setting: for B9 the value was 8.4 nM; for B10, 3.9 nM.
For the molecule B11, the dissociation constant Kd amounted to 8.8 nM.
Still for that read-out and setting: to B12 belongs 4 nM.

The target in another assay is T2, human IgE with the M1′ sequence (long form of membrane IgE) expressed on transduced BJAB or Daudi cells (human, UniProt P01854 116-546).
T2 construct: Full-length heavy and light chains of the U266 IgE B cell receptor, retrovirally expressed; also called IgE/M1′; IgE-M1′
T2 sequence (P01854 116-546 I515L limits assumed): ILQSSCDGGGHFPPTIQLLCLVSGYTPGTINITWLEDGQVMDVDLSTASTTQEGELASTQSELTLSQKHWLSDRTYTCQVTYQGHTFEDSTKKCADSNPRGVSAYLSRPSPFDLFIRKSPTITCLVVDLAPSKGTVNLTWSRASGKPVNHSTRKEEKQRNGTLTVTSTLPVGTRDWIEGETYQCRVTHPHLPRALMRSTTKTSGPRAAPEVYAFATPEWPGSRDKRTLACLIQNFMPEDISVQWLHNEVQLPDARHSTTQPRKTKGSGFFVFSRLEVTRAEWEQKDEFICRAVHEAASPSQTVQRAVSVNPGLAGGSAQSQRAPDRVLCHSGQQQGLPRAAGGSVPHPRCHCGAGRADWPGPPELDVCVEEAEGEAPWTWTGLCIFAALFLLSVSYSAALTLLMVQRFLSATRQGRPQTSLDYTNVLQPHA
Nature of the assay: Scatchard analysis on cells expressing human IgE/M1′. How it is done:
The BJAB or Daudi cells expressing various forms of IgE with or without M1′ (Human, Rhesus, Cyno) were prepared for binding in cold Binding buffer composed of base media, with 10 mM HEPES pH 7.4, and 2% FBS as well as 40 ug/ml human IgG. Cells are diluted to concentration of 1.7×10⁶ cells/ml, and kept on ice until they are added to the assay. The proteins/antibodies are iodinated with the Iodogen method. Various concentrations of cold protein are prepared in triplicate, using a 1:2 dilution starting with the saturation concentration and ending at a concentration of zero, with a total of 14 concentrations. Hot protein of a single concentration is added to all dilutions compete with the cold protein. Lastly the cells are added to the hot and cold protein mixture, 250,000 cells per sample were used. Assay is kept at 4° C. for 4 hours, shaking. Each sample is then collected and filtered on membrane, washed at least 3 times with binding buffer, allowed to dry and then counted for 1 minute using Perkin Elmer Wizard 1470 Auto Gamma Counter.
As for B1, binding was characterised by a dissociation constant (Kd) of 0.37 nM.
On the same count and under the same terms, to B2 belongs 0.54 nM; to B5, 1.06 nM; to B10, 1.5 nM.

Another assay addresses T1, human IgE CH3-CH4-M1′/Fc fusion protein. In words: SPR Biacore 2000, IgG immobilized, M1′-Fc analyte.
For B1, the Kd is 3.1 nM.
In turn, B2 gave a Kd of 2.8 nM.
On the same count and under the same terms, to B5 belongs 9 nM.

The target in the next assay is T2, human IgE with the M1′ sequence (long …). Nature of the assay: competitive ECL binding on BJAB-IgE/M1′ cells vs biotinylated 26A11 or 47H4, 1st IC50 column.
Take B1: the half-inhibitory concentration (IC50) turned out to be 12 nM.
In the case of B2, the IC50 came out at 38 nM.
B4 came in with a concentration for half-maximal inhibition (IC50) of roughly 7600 nM.
B5: the IC50 turned out to be 15 nM.
On the same count and under the same terms, to B6 belongs 10 nM.
In turn, B13 came in with an IC50 of 25 nM.
Molecule B7 came in with an IC50 of 20 nM.
With B8, the IC50 was 18 nM.

The target is the same in another assay. Nature of the assay: competitive ECL binding on BJAB-IgE/M1′ cells vs biotinylated 26A11 or 47H4, 2nd IC50 column.
The molecule B1 gave an IC50 of 18 nM.
B5 registered a half-inhibitory concentration (IC50) of 19 nM.
Turning to B6, the IC50 was determined as 22 nM.
The molecule B9 returned an IC50 of 32 nM.
In the case of B13, the IC50 came to 35 nM.
Take B7: the half-inhibitory concentration (IC50) is 29 nM.
Molecule B10 yielded an IC50 of 19 nM.
Take B11: the IC50 was determined as 27 nM.
In turn, B12 showed an IC50 of 19 nM.

Another assay has the same target. Nature of the assay: number printed in the titration panel; FIG. 3M calls these numbers 'Scatchard Results' (BJAB-Long cells). How it is done:
In addition to relative affinity determinations by antibody titration and FACs detection, we also determined affinities of selected anti-MP antibodies to BJAB cell lines expressing IgE long form using Scatchard analysis. BJAB-Long cells were prepared for binding in cold Binding buffer composed of base media, with 10 mM HEPES pH 7.4, and 2% FBS as well as 40 μg/ml human IgG. Cells were diluted to a concentration of 1.7×10⁶ cells/ml, and kept on ice until added to the assay. The antibodies were iodinated with Iodogen method. Various concentrations of unlabelled antibody were prepared in triplicate, using a 1:2 dilution starting with the saturation concentration and ending at a concentration of zero, with a total of 14 concentrations. Iodinated antibody of a single concentration was added to all dilutions of the competitor unlabelled antibody. Lastly 250,000 BJAB-Long cells were added to each mixture of iodinated and unlabelled antibody. The samples were incubated at 4° C. for 4 hours, shaking. Each sample was then collected and filtered on a membrane, washed at least 3 times with binding buffer, allowed to dry and then measured for 1 minute using a Perkin Elmer Wizard 1470 Auto Gamma Counter.
The molecule B14 returned a Kd of 2.7 nM.
In turn, B15 came in with a Kd of 16.8 nM.
